Test results taken from PMC6248932.

Assays:
[1] = biological target: BG505 SOSIP.664 gp140 trimer (HIV-1 (clade A, strain BG505)) (UniProt Q2N0S6); experiment: SEC
[2] = biological target: BG505 SOSIP.664 gp140 trimer (HIV-1 (clade A, strain BG505)) (UniProt Q2N0S6); experiment: native gel or EMSA
[3] = biological target: BG505 UFO gp140 trimer (HIV-1 (clade A, strain BG505)); experiment: SEC
[4] = biological target: BG505 UFO gp140 trimer (HIV-1 (clade A, strain BG505)); experiment: native gel or EMSA
[5] = biological target: clade B tier 3 H078.14 UFO-BG gp140 trimer (HIV-1 (clade B, strain H078.14) | HIV-1 (clade A, strain BG505)); experiment: crystal structure

In the case of “BG505 SOSIP.664 gp140 trimer (from UniProt Q2N0S6 31-505) (complex)”, the stoichiometry N [1] is reported as 3 and the stoichiometry N [2] is reported as 3.

Work on BG505 UFO gp140 trimer yielded a stoichiometry N [3] of 3 and a stoichiometry N [4] of 3.

With “clade B tier 3 H078.14 UFO-BG gp140 trimer” the stoichiometry N [5] was 3.
